Measurements published in the DeepSol protein solubility set.

Experiment: soluble on expression in E. coli; label from the status in PepcDB or PDB records

Row | Sequence | soluble on expression in E. coli
1 | MAHHHHHHMGGYIGYNLVYNQQASVSQALWSREDEDVAPVSMPVRPRVALVNMTENLRSCAMGGLRAWLDVADEVELEFPTVTFVEDDEAGAIAGLAAEVRRAALFAWVELKERHEMDAPFGVKPLCCVVFRSITEVDGQALDAWDVQEVELRRWHGKRFVTRHCVGASVDGKRAMVLMHDVEGVIDVGPAAALAGGRVSDCGALVRQYGAPSTASFRRWKLSAEAQSSSTPVQPPAKSLQGLGIRLRDGQRCQLWQSPLHIFAALGAVLRYNRADAAVYPNHITTPVPVSQSASAVSASLWGCVKEWALRCTPTLLHWYTARQAERMERQRQLSSTFVVVVRLAEERAAVTSDVLRVVEEHVAEWMRDMNGASPMKTSLSTANRVCVRDAAARPEELMAAPTIQVDLTDTVCSVIAAEWLLIRLTSLFAALGLEPALAQLVAVPGPQASTSLLYPTPNTAHLRHLWLSRSATTSSSTITDNDAKSPRVTWSGRTTQGEHIAGCAATMPIEAGYVVSEHYFSAF | not soluble
2 | MAHHHHHHMEDAFAGSCVQSLFEPKADLSLCVNKSIKLFLKEVPIPPADSVDRADEQNSTDAKKEQRESALSENLSLLNGYAYFNRIKSNINLLHTELHGIKRDFLFQKKQTKKNIQKLKIVRKQNKIYQSVLQEIKKDRRRKETYELLCTEIQKLEEVNYLNKKQQMEKRDIEDLQQKMKDIENAIRINDENIQRTIQQISDIVSTNLQP | not soluble
3 | SSGIHVALVTGGNKGIGLAIVRDLCRLFSGDVVLTARDVTRGQAAVQQLQAEGLSPRFHQLDIDDLQSIRALRDFLRKEYGGLDVLVNNAGIAFKVADPTPFHIQAEVTMKTNFFGTRDVCTELLPLIKPQGRVVNVSSIMSVRALKSCSPELQQKFRSETITEEELVGLMNKFVEDTKKGVHQKEGWPSSAYGVTKIGVTVLSRIHARKLSEQRKGDKILLNACCPGWVRTDMAGPKATKSPEEGAETPVYLALLPPDAEGPHGQFVSEKRVEQW | soluble
4 | MTALTWTDERVEQLKKLWEGGLSASQIAAELGNVTRNAVIGKVHRLGLSGRAKSPTSAAPRPRKARPVQQMMRVTRPVARGNTALAHAFEVEAEPDPIAFDNVVPMNQRLSLLELNEATCHWPVGDPSSPEFFFCGGKSLPGLPYCAHHSRIAYQPVGDRRRAAPKTTRLEHHHHHH | soluble
5 | KALEEMHIPVDIITGTSMGAYVGGLYATGMSADEIESFIYSVDWNSGYRDRVDRSQRRVRDKEYEDRYQITTDLGLRFGEVRAPTGVVQGQNMLRVLRETTGNLGRFDSFDELAIPYRSVATDILELDEVVIGNGYLVDAMMASMSVPGALPPYKLNGHMLVDGGVVNNMPVDVARAMGADVVIAVDISTDYKTEDDFTGLFTVADQLSNYLVRRSTQQQVETLQEHDVYIRPNVGQMETVEFDKMPWAFQSGYDITREMESKLAGLRLSNAEYQKYIDHKQEVRKKLVYGDDRVVDEIVIVNNTHYS | not soluble
6 | MGQTVNEDSMDVKKENQEKTPQSSTSSVQRDDFHWEEYLKETGSISAPSECFRQSQIPPVNDFKVGMKLEARDPRNATSVCIATVIGITGARLRLRLDGSDNRNDFWRLVDSPDIQPVGTCEKEGDLLQPPLGYQMNTSSWPMFLLKTLNGSEMASATLFKKEPPKPPLNNFKVGMKLEAIDKKNPYLICPATIGDVKGDEVHITFDGWSGAFDYWCKYDSRDIFPAGWCRLTGDVLQPPGTS | soluble
7 | MGSDKIHHHHHHMLPSAPCSGWSHHTLKPLGAGTRGTGYIMPVTNMIHLDNRDHADRQSHGQPAHVLMLEQSPGVVPKSLLGKGLTYLREQWPKLIRYVENGSWPISNNPCENAIRLFCVGRRGWLFSDTVDGANACANLYTLVETSKTNGIDLYRYLAWLFRRLPLAKTVDDYDALLPWRMPVDIHVDPFDKERSTIDHEQENHSAGSLSA | not soluble
8 | MGSDKIHHHHHHMTTLALTGDSILQRRLLSTSDPVIKPLFDLIRGCDAAFTNLEVLPNDYRGDPAFDSGGSHFGAPSWVLDDLVEAGFGMFSTATNHTLDYSISGLEYGLDQLDKRGLCHAGAGRHLEEARRAAYLTTPNAAIGMVACGSTYTKGQEAARQTAAMQGRPGLNPLWPDSTYEVTAEQMAVVKEMAEGLGLEKFRQIRISTGFAFEAPEGIFPFNGMNFRVGEQTRHVRHPNPKDLAAIIRWVEEAKLASDIALVSIHAHEHADEKDQPADFIVEFAHAVIDAGADLVVGHGPHLLRGMEIYKGKPIFYSLGNFIGQNEMVRQLPGESYDRFHVDDRLTPTQLYKQRTLDDQKGFPSDERYWQTVVPICHFEGDGLVDVEIHPVSLGLGEQRHRRGRPRLAHGAEAESILNRFSSLSYEFGSTLEVGDTCANAVL | not soluble
9 | MSNVCIVYSSTHHGNTEKVLNKIKEKFPETVLIKAGDFNPDDFNRYEAIGFASGIFYFKFAKPVDKLFEQALVGSVQKLFFIYTAGAVNAGFEKTLRKKTEQSGKICMGIFGCKGFDTFGPLKLIGGLNKNSPNEKDFKNAIDFFEKNIINALEHHHHHH | soluble
10 | MGSDKIHHHHHHMVRGRKIMSLVTDLPAIFDQFSEARQTGFLTVMDLKERGIPLVGTYCTFMPQEIPMAAGAVVVSLCSTSDETIEEAEKDLPRNLCPLIKSSYGFGKTDKCPYFYFSDLVVGETTCDGKKKMYEYMAEFKPVHVMQLPNSVKDDASRALWKAEMLRLQKTVEERFGHEISEDALRDAIALKNRERRALANFYHLGQLNPPALSGSDILKVVYGATFRFDKEALINELDAMTARVRQQWEEGQRLDPRPRILITGCPIGGAAEKVVRAIEENGGWVVGYENCTGAKATEQCVAETGDVYDALADKYLAIGCSCVSPNDQRLKMLSQMVEEYQVDGVVDVILQACHTYAVESLAIKRHVRQQHNIPYIAIETDYSTSDVGQLSTRVAAFIEML | not soluble
11 | MNKNIDTVREIITVASILIKFSREDIVENRANFIAFLNEIGVTHEGRKLNQNSFRKIVSELTQEDKKTLIDEFNEGFEGVYRYLEMYTNK | soluble
12 | MGSDKIHHHHHHLRASSSIRVGAERAHLAIGAASKRMADLEASIGVQLFERHARGVALTAAGEALERHTQRILNDMDRMTAEMSDYAAGVVGVVRLWANTSSVTQFLPTDIAAFSVVHPDIRIELEEQDSEQVALAVVDGAADFGIMADRMPTLGLQAMLYRKDHLFLVVPDGHPLTQRESVSFVDALEFDFVSLARNTSLAKRLQAATAFSGGQIKLRIQVRSFDAMCLMVAAGPGIAILPDAAVGPHLRSMDLCRIPLSENWTRRELFICARDLNALPRPASLLVNHLIGATPDAVAVR | not soluble
13 | MGSDKIHHHHHHMYVVFGATGQTGSAVANALLERNFPVRVVLRSDKAASTWREKGADVAIAEVTDVEAMTAAMREADAVYVMNPPAYNVSDMFALAEQIGECYVEALTNADARKVVLLSSVGSQHASGTGNILTTHILERMLGNLAVPVTVLRAASFMENWGSAAAIAAEQGVLPSFFAPLDRRLPMVSTEDIGRTAAEAMIEDWKGQRIIELHGPIDYSPNDVAAAFAAVLNRNVQAIAVPESDWQATISSFGFSPEAVNSYSEMMRGFNSGHIVFESSPEIETRTGQTAIEAAVDRLTGSKSK | not soluble
14 | GSMADEALFLLLHNEMVSGVYKSAEQGEVENGRCITKLENMGFRVGQGLIERFTKDTARFKDELDIMKFICKDFWTTVFKKQIDNLRTNHQGIYVLQDNKFRLLTQMSAGKQYLEHASKYLAFTCGLIRGGLSNLGIKSIVTAEVSSMPACKFQVMIQKL | soluble
15 | MAEPKWPSSAKTLPFKFMKEARNPCTRAQKLCSTHRRAAAPPSFSVHLTQKSENSSSEESDHQFASPTSPRPSSSDSFGPSAAPSTSLSPPFLSPSYSMDYIIEAMTSSSSTSPVPPPVSASRPVAPVVARVEGLRAVPVGHRRQHSSPGHLQQFQQELHARHHHANITRLNKKRRNTDTGYDPEARPPKFKHRSPLDEETILVSKTFAIPKYRKGALPAAAAAVVRNEALMDSSDSSDSQSTVKSLDGWRTRTSRSIMTTPEAFSRVRHISITFGEQQHDIDTDHSNQHFGSPSSLHSSLPRAFSPPHKISKARRRQLAVTTSLSETSAFPIPSSLKARSRMSSMSSTQADDEHPISMQNMRNIALGILVPIKQRFFLMQHIPLIEAEMSRFESRVVTAALHPSTFLQNISKSWEELTETVCQLHNAPRLRHPYWLALNEKCHLDGRTLATEFCEQLAYLVRRYDRKEAGYFLSNLVTALLMHHMSWVASVASPPLHNADSKDQIDENSLFGMMSSGAPTVGYNALMAQYLEISGACGNMRSAKICVVGEDLEVLASVCSVLSFFIRCSAVQHVDNDKMWEVPTEQPFSPCDVSNSPSTSCAHQHQQQQQLKNGYQHPEETSSVAMMRRLRNNNQMDTSSTPSTSTAAALLDADVEMVVQTTTEITSTTTTTPRHHHLHHLHSVTIDRLDFPCCPTIADDADMWVPQRPNSEGLGRSMFAGPLNNYCSHFVLSAVQKTDTNMPEVYSRMFDEVRCTDFPCHRSATATPSQSTSSMCDPAMNPENVLIIADIEQLTVKVLSTEGSDEVTSPSESIVAMLEQFVGIHNAVPANAEFLVGIIEDSLAHIVGKSLTLVELVRSDQTVRIQGSERAKKSKILAKIEILLAVCPEIGNFSKFEFPSYRALK | not soluble
16 | MAPHGDGLSDIEEPEVDAQSEILRPISSVVFVIAMQAEALPLVNKFGLSETTDSPLGKGLPWVLYHGVHKDLRINVVCPGRDAALGIDSVGTVPASLITFASIQALKPDIIINAGTCGGFKVKGANIGDVFLVSDVVFHDRRIPIPMFDLYGVGLRQAFSTPNLLKELNLKIGRLSTGDSLDMSTQDETLIIANDATLKDMEGAAVAYVADLLKIPVVFLKAVTDLVDGDKPTAEEFLQNLTVVTAALEGTATKVINFINGRNLSDL | soluble
17 | DTTERKRREKRLEETSSRLEALFENSPDMIDVLDADGTICEVNQRFCAELGYDESEVLGRSIWEFDLMFDAEDVQTQLSGFSVDERRKFEGLYERRDGSTMSVEVHLLRFNLEGEDRFLAISRD | soluble
18 | MAHHHHHHMDSIVLPGEALGSCDAYVSGENTYSLQKEVRSAILGRRQLTTNGDGKQVISVANTKEFIPLPQVGDLVTCKVYRVTFNLIYCNIILLNSKAVRNSFRAFINKSDIHVYEGELGDNFECFKQGDIIRAKVLSVAQHGSYKLSTVGSDLGVILALSDGGERKRGKKQKKTKKQKKKKKKKEP | not soluble
19 | MNMYRVIEMYGDFEPWWFLEGWEEDIVASRKFDQYYDALKYYKTCWFRLEQESPLYKSRSDLMTIFWDPEDQRWCDECDEYLQQYHSLALLQDEQVIPDEKLRSGYEKQTSQERNRSCRMKLKLEHHHHHH | soluble
20 | MGSDKIHHHHHHMVNNMTDLTAQDAAWSTRDHLDDPVIGELRNRFGPDAFTVQATRTGIPVVWVKREQLLEVGDFLKKLPKPYVMLFDLHGMDERLRTHRDGLPAADFSVFYHLISIERNRDIMLKVALSENDLRVPTFTKLFPNANWYERETWEMFGIDIEGHPHLTRIMMPQTWEGHPLRKDYPARATEFDPFELTKAKQDLEMEALTFKPEDWGMKRGTDNEDFMFLNLGPNHPSAHGAFRIILQLDGEEIVDCVPDIGYHHRGAEKMGERQSWHSYIPYTDRIEYLGGCVNEMPYVLAVEKLAGITVPDRVNVIRVMLSELFRINSHLLYISTFIQDVGAMTPVFFAFTDRQKIYDLVEAITGFRMHPAWFRIGGVAHDLPRGWDRLLREFLEWMPKRLDSYEKAALRNTILKGRSQGVAAYGAKEALEWGTTGAGLRATGIDFDVRKWRPYSGYENFDFEVPVGGGVSDCYTRVMLKVEELRQSLRILQQCLDNMPEGPFKADHPLTTPPPKERTLQHIETLITHFLQVSWGPVMPAQESFQMVEATKGINSYYLTSDGSTMSYRTRVRTPSFAHLQQIPSAIRGSLVSDLIVYLGSIDFVMSDVDR | not soluble
